From patent publication US20220048967A1 (published 2022)
Where a chain is given by its changes, count along the chain named. Numbered stars: 1 amine (or outer) side, 2 acyl side, 3 side chain; on linkers, the order of the positions; unused ones are H or OH. Square brackets hold non-standard residues; d marks the D form. Side chains are listed from the residue outwards. Ends that are not written are not given here. * marks the point of attachment. C20 diacid = O=C(O)CCCCCCCCCCCCCCCCCCC(=O)*; C18 diacid = O=C(O)CCCCCCCCCCCCCCCCC(=O)*; γGlu = O=C(O)[C@H](CCC(=O)[*:2])N[*:1]; AEEA = NCCOCCOCC(=O)O; Aib = CC(C)(N)C(=O)O

B1: Example 300 (peptide)
peptide: YXEGTFTSDYSIXLDKKAQXAFIEYLIEGGPSSG
modifications: Aib2, αMeL13, K17 conjugated to (2-[2-(2-Amino-ethoxy)-ethoxy]-acetyl)2-(γ-Glu)-CO-(CH2)16-CO2H, Aib20, C-terminal amide (NH2)
B2: Example 303 (peptide)
peptide: B1 peptide with K16E
modifications: Aib2, αMeL13, K17 conjugated to (2-[2-(2-Amino-ethoxy)-ethoxy]-acetyl)2-(γ-Glu)-CO-(CH2)16-CO2H, Aib20, C-terminal amide (NH2)
B3: Example 302 (peptide)
peptide: B1 peptide with F6X, X13L
modifications: Aib2, αMeF(2F)6, K17 conjugated to (2-[2-(2-Amino-ethoxy)-ethoxy]-acetyl)2-(γ-Glu)-CO-(CH2)16-CO2H, Aib20, C-terminal amide (NH2)
B4: Example 301 (peptide)
peptide: B1 peptide with F6X, X13L
modifications: Aib2, αMeF6, K17 conjugated to (2-[2-(2-Amino-ethoxy)-ethoxy]-acetyl)2-(γ-Glu)-CO-(CH2)16-CO2H, Aib20, C-terminal amide (NH2)
B5: Example 288 (peptide)
peptide: Y[Aib]EGTFTSDYSILLDKK([AEEA-AEEA-γGlu-C20 diacid])AQ[Aib]AFIEYLIAGGPSSGAPPPS-NH2
modifications: N-terminus assumed
SMILES: CC[C@H](C)[C@H](NC(=O)[C@H](CC(C)C)NC(=O)[C@H](Cc1ccc(O)cc1)NC(=O)[C@H](CCC(=O)O)NC(=O)[C@@H](NC(=O)[C@H](Cc1ccccc1)NC(=O)[C@H](C)NC(=O)C(C)(C)NC(=O)[C@H](CCC(N)=O)NC(=O)[C@H](C)NC(=O)[C@H](CCCCNC(=O)COCCOCCNC(=O)COCCOCCNC(=O)CC[C@H](NC(=O)CCCCCCCCCCCCCCCCCCC(=O)O)C(=O)O)NC(=O)[C@H](CCCCN)NC(=O)[C@H](CC(=O)O)NC(=O)[C@H](CC(C)C)NC(=O)[C@H](CC(C)C)NC(=O)[C@@H](NC(=O)[C@H](CO)NC(=O)[C@H](Cc1ccc(O)cc1)NC(=O)[C@H](CC(=O)O)NC(=O)[C@H](CO)NC(=O)[C@@H](NC(=O)[C@H](Cc1ccccc1)NC(=O)[C@@H](NC(=O)CNC(=O)[C@H](CCC(=O)O)NC(=O)C(C)(C)NC(=O)[C@@H](N)Cc1ccc(O)cc1)[C@@H](C)O)[C@@H](C)O)[C@@H](C)CC)[C@@H](C)CC)C(=O)N[C@@H](C)C(=O)NCC(=O)NCC(=O)N1CCC[C@H]1C(=O)N[C@@H](CO)C(=O)N[C@@H](CO)C(=O)NCC(=O)N[C@@H](C)C(=O)N1CCC[C@H]1C(=O)N1CCC[C@H]1C(=O)N1CCC[C@H]1C(=O)N[C@@H](CO)C(N)=O
B6: Example 272 (peptide)
peptide: Y[Aib]EGTFTSDYSILLDKK([AEEA-AEEA-γGlu-C18 diacid])AQ[Aib]AFIEYLIAGGPSSG-NH2
modifications: N-terminus assumed
SMILES: CC[C@H](C)[C@H](NC(=O)[C@H](CC(C)C)NC(=O)[C@H](Cc1ccc(O)cc1)NC(=O)[C@H](CCC(=O)O)NC(=O)[C@@H](NC(=O)[C@H](Cc1ccccc1)NC(=O)[C@H](C)NC(=O)C(C)(C)NC(=O)[C@H](CCC(N)=O)NC(=O)[C@H](C)NC(=O)[C@H](CCCCNC(=O)COCCOCCNC(=O)COCCOCCNC(=O)CC[C@H](NC(=O)CCCCCCCCCCCCCCCCC(=O)O)C(=O)O)NC(=O)[C@H](CCCCN)NC(=O)[C@H](CC(=O)O)NC(=O)[C@H](CC(C)C)NC(=O)[C@H](CC(C)C)NC(=O)[C@@H](NC(=O)[C@H](CO)NC(=O)[C@H](Cc1ccc(O)cc1)NC(=O)[C@H](CC(=O)O)NC(=O)[C@H](CO)NC(=O)[C@@H](NC(=O)[C@H](Cc1ccccc1)NC(=O)[C@@H](NC(=O)CNC(=O)[C@H](CCC(=O)O)NC(=O)C(C)(C)NC(=O)[C@@H](N)Cc1ccc(O)cc1)[C@@H](C)O)[C@@H](C)O)[C@@H](C)CC)[C@@H](C)CC)C(=O)N[C@@H](C)C(=O)NCC(=O)NCC(=O)N1CCC[C@H]1C(=O)N[C@@H](CO)C(=O)N[C@@H](CO)C(=O)NCC(N)=O
B7: Example 4 (peptide)
peptide: YXEGTXTSDXSIXLDXKAQXEFIXXLIEGGPSSGAPPPS
modifications: Aib2, αMeF(2F)6, 4Pal10, αMeL13, Orn16, K17 conjugated to (2-[2-(2-Amino-ethoxy)-ethoxy]-acetyl)2-(γ-Glu)-CO-(CH2)16-CO2H, Aib20, D-Glu24, αMeY25, C-terminal amide (NH2)
B8: Example 267 (peptide)
peptide: Y[Aib]EGTFTSDYSILLDKK([AEEA-AEEA-γGlu-C18 diacid])AQ[Aib]AFIEYLIEGG-NH2
modifications: N-terminus assumed
SMILES: CC[C@H](C)[C@H](NC(=O)[C@H](CC(C)C)NC(=O)[C@H](Cc1ccc(O)cc1)NC(=O)[C@H](CCC(=O)O)NC(=O)[C@@H](NC(=O)[C@H](Cc1ccccc1)NC(=O)[C@H](C)NC(=O)C(C)(C)NC(=O)[C@H](CCC(N)=O)NC(=O)[C@H](C)NC(=O)[C@H](CCCCNC(=O)COCCOCCNC(=O)COCCOCCNC(=O)CC[C@H](NC(=O)CCCCCCCCCCCCCCCCC(=O)O)C(=O)O)NC(=O)[C@H](CCCCN)NC(=O)[C@H](CC(=O)O)NC(=O)[C@H](CC(C)C)NC(=O)[C@H](CC(C)C)NC(=O)[C@@H](NC(=O)[C@H](CO)NC(=O)[C@H](Cc1ccc(O)cc1)NC(=O)[C@H](CC(=O)O)NC(=O)[C@H](CO)NC(=O)[C@@H](NC(=O)[C@H](Cc1ccccc1)NC(=O)[C@@H](NC(=O)CNC(=O)[C@H](CCC(=O)O)NC(=O)C(C)(C)NC(=O)[C@@H](N)Cc1ccc(O)cc1)[C@@H](C)O)[C@@H](C)O)[C@@H](C)CC)[C@@H](C)CC)C(=O)N[C@@H](CCC(=O)O)C(=O)NCC(=O)NCC(N)=O
B9: Example 316 (peptide)
peptide: Y[Aib]EGTFTSDYSILLDKK([AEEA-AEEA-γGlu-C18 diacid])AQ[Aib]AFIEYLIAGGPSSGAPPPS-NH2
modifications: N-terminus assumed
SMILES: CC[C@H](C)[C@H](NC(=O)[C@H](CC(C)C)NC(=O)[C@H](Cc1ccc(O)cc1)NC(=O)[C@H](CCC(=O)O)NC(=O)[C@@H](NC(=O)[C@H](Cc1ccccc1)NC(=O)[C@H](C)NC(=O)C(C)(C)NC(=O)[C@H](CCC(N)=O)NC(=O)[C@H](C)NC(=O)[C@H](CCCCNC(=O)COCCOCCNC(=O)COCCOCCNC(=O)CC[C@H](NC(=O)CCCCCCCCCCCCCCCCC(=O)O)C(=O)O)NC(=O)[C@H](CCCCN)NC(=O)[C@H](CC(=O)O)NC(=O)[C@H](CC(C)C)NC(=O)[C@H](CC(C)C)NC(=O)[C@@H](NC(=O)[C@H](CO)NC(=O)[C@H](Cc1ccc(O)cc1)NC(=O)[C@H](CC(=O)O)NC(=O)[C@H](CO)NC(=O)[C@@H](NC(=O)[C@H](Cc1ccccc1)NC(=O)[C@@H](NC(=O)CNC(=O)[C@H](CCC(=O)O)NC(=O)C(C)(C)NC(=O)[C@@H](N)Cc1ccc(O)cc1)[C@@H](C)O)[C@@H](C)O)[C@@H](C)CC)[C@@H](C)CC)C(=O)N[C@@H](C)C(=O)NCC(=O)NCC(=O)N1CCC[C@H]1C(=O)N[C@@H](CO)C(=O)N[C@@H](CO)C(=O)NCC(=O)N[C@@H](C)C(=O)N1CCC[C@H]1C(=O)N1CCC[C@H]1C(=O)N1CCC[C@H]1C(=O)N[C@@H](CO)C(N)=O
B10: Example 266 (peptide)
peptide: Y[Aib]EGTFTSDYSILLDKK([AEEA-AEEA-γGlu-C18 diacid])AQ[Aib]AFIEYLIEGGPSSG-NH2
modifications: N-terminus assumed
SMILES: CC[C@H](C)[C@H](NC(=O)[C@H](CC(C)C)NC(=O)[C@H](Cc1ccc(O)cc1)NC(=O)[C@H](CCC(=O)O)NC(=O)[C@@H](NC(=O)[C@H](Cc1ccccc1)NC(=O)[C@H](C)NC(=O)C(C)(C)NC(=O)[C@H](CCC(N)=O)NC(=O)[C@H](C)NC(=O)[C@H](CCCCNC(=O)COCCOCCNC(=O)COCCOCCNC(=O)CC[C@H](NC(=O)CCCCCCCCCCCCCCCCC(=O)O)C(=O)O)NC(=O)[C@H](CCCCN)NC(=O)[C@H](CC(=O)O)NC(=O)[C@H](CC(C)C)NC(=O)[C@H](CC(C)C)NC(=O)[C@@H](NC(=O)[C@H](CO)NC(=O)[C@H](Cc1ccc(O)cc1)NC(=O)[C@H](CC(=O)O)NC(=O)[C@H](CO)NC(=O)[C@@H](NC(=O)[C@H](Cc1ccccc1)NC(=O)[C@@H](NC(=O)CNC(=O)[C@H](CCC(=O)O)NC(=O)C(C)(C)NC(=O)[C@@H](N)Cc1ccc(O)cc1)[C@@H](C)O)[C@@H](C)O)[C@@H](C)CC)[C@@H](C)CC)C(=O)N[C@@H](CCC(=O)O)C(=O)NCC(=O)NCC(=O)N1CCC[C@H]1C(=O)N[C@@H](CO)C(=O)N[C@@H](CO)C(=O)NCC(N)=O
B11: Example 315 (peptide)
peptide: YXEGTFTSDYSILLDKKAQXAFIEYLIEGGPSSGAPPPS
modifications: Aib2, K17 conjugated to (2-[2-(2-Amino-ethoxy)-ethoxy]-acetyl)2-(γ-Glu)-CO-(CH2)16-CO2H, Aib20, C-terminal amide (NH2)
B12: Example 327 (peptide)
peptide: B11 peptide with Y1F, L13X
modifications: Aib2, αMeL13, K17 conjugated to (2-[2-(2-Amino-ethoxy)-ethoxy]-acetyl)2-(γ-Glu)-CO-(CH2)18-CO2H, Aib20, C-terminal amide (NH2)
B13: Example 289 (peptide)
peptide: B11 peptide with L13X, A21E, E28A
modifications: Aib2, αMeL13, K17 conjugated to (2-[2-(2-Amino-ethoxy)-ethoxy]-acetyl)2-(γ-Glu)-CO-(CH2)18-CO2H, Aib20, C-terminal amide (NH2)

Columns and labels:
[1] = biological target: Pro-Link-tagged Human GLP-1R (human, UniProt P43220 24-463); experiment: cell-based or functional assay
human GLP-1 receptor = human GLP-1 receptor (human, UniProt P43220 24-463); experiment: cell-based or functional assay

Binder	hGLP1R B-Arrestin2 % Top [1] [%]	hGLP1R B-Arrestin2 Rel EC50 [1] [nM]	hGLP1R GTPgS % Top (human GLP-1 receptor) [%]	hGLP1R GTPgS Rel EC50 (human GLP-1 receptor) [nM]
B1	38.4	5.4	85.6	0.405
B2	47.7	17.9	74.3	0.547
B3	98.4	2.19	98.6	0.268
B4	93.7	2.67	91.4	0.435
B5	21.3	6.74	66.7	0.666
B6		> 12000	66.5	0.651
B7	92.4	4.8	86.9	0.245
B8	16.5	9.01	62.3	0.867
B9	26.1	6.08	56.7	0.766
B10	17.1	16	63.4	0.865
B11	25.4	19.9	44.2	0.601
B12	41.6	3.79	75.6	0.287
B13	51.3	12.4	83.7	0.404
